In article PMC8916587, “Endoglin Wild Type and Variants Associated With Hereditary Hemorrhagic Telangiectasia Type 1 Undergo Distinct Cellular Degradation Pathways” (Frontiers in Molecular Biosciences, 2022):
Numbering of substitutions follows the chain as printed. In names and notes the source's numbering stands.

B1: HA-tagged WT Endoglin (receptor, UniProt P17813 26-658, looked up)
chain: ETVHCDLQPVGPERGEVTYTTSQVSKGCVAQAPNAILEVHVLFLEFPTGPSQLELTLQASKQNGTWPREVLLVLSVNSSVFLHLQALGIPLHLAYNSSLVTFQEPPGVNTTELPSFPKTQILEWAAERGPITSAAELNDPQSILLRLGQAQGSLSFCMLEASQDMGRTLEWRPRTPALVRGCHLEGVAGHKEAHILRVLPGHSAGPRTVTVKVELSCAPGDLDAVLILQGPPYVSWLIDANHNMQIWTTGEYSFKIFPEKNIRGFKLPDTPQGLLGEARMLNASIVASFVELPLASIVSLHASSCGGRLQTSPAPIQTTPPKDTCSPELLMSLIQTKCADDAMTLVLKKELVAHLKCTITGLTFWDPSCEAEDRGDKFVLRSAYSSCGMQVSASMISNEAVVNILSSSSPQRKKVHCLNMDSLSFQLGLYLSPHFLQASNTIEPGQQSFVQVRVSPSVSEFLLQLDSCHLDLGPEGGTVELIQGRAAKGNCVSLLSPSPEGDPRFSFLLHFYTVPIPKTGTLSCTVALRPKTGSQDQEVHRTVFMRLNIISPDLSGCTSKGLVLPAVLGITFGAFLIGALLTAALWYIYSHTRSPSKREPVVAVAAPASSESSSTNHSIGSTQSTPCSTSSMA
notes: Endoglin (CD105), wild type, encoded by ENG; Seen as a dimer on a non-reducing gel; also called Endoglin WT; ENG-WT; source: HEK293, stably transfected (pcDNA3.0), in lysate
B2: HA-tagged Endoglin mutant variant P165L (receptor, UniProt P17813 26-658, looked up)
chain: B1 chain with P140L
notes: Endoglin (CD105) with the HHT1 disease-causing missense variant P165L, made by site directed mutagenesis; Retained in the ER; also called ENG-P165L; p; P165L; source: HEK293, stably transfected (pcDNA3.0), in lysate
B3: HA-tagged Endoglin mutant variant V105D (receptor, UniProt P17813 26-658, looked up)
chain: B1 chain with V80D
notes: Endoglin (CD105) with the HHT1 disease-causing missense variant V105D, made by site directed mutagenesis; Retained in the ER; also called ENG-V105D; p; V105D; source: HEK293, stably transfected (pcDNA3.0), in lysate

Molecular target: the molecule itself
Assay: non-reducing SDS-PAGE with Western blot; lysates of stably transfected HEK293 cells denatured in sample buffer with or without a reducing agent; blotted with anti-HA

| Protein | stoichiometry N |
| --- | --- |
| B1 | 2 |
| B2 | 2 |
| B3 | 2 |
